Measurements published in publication PMC9562052.

Key:
[1] = target: Plasmodium falciparum lactate dehydrogenase (PfLDH) (Plasmodium falciparum, UniProt Q76NM3 1-316); experiment: ELASA sandwich
[2] = target: human lactate dehydrogenase (hLDH) (human, UniProt P00338 1-332); experiment: ELASA sandwich

**Q.** Does CTGGGCGGTAGAACCATAGTGACCCAGCCGTCTAC (ssDNA) [2008s aptamer, 3'-biotin] bind [1]?
**A.** Result: binds

**Q.** Does CTGGGCGGTAGAACCATAGTGACCCAGCCGTCTAC (ssDNA) [2008s aptamer, 3'-biotin] bind [2]?
**A.** Result: no binding
